Paper PMC3608519 (Journal of immunology (Baltimore, Md. : 1950), 2013)

Biological target: RSV fusion (F) protein ectodomain (Human respiratory syncytial virus; …, UniProt P03420)
Experiment: SPR

RSV fusion (F) protein ectodomain, sequence (P03420 26-524): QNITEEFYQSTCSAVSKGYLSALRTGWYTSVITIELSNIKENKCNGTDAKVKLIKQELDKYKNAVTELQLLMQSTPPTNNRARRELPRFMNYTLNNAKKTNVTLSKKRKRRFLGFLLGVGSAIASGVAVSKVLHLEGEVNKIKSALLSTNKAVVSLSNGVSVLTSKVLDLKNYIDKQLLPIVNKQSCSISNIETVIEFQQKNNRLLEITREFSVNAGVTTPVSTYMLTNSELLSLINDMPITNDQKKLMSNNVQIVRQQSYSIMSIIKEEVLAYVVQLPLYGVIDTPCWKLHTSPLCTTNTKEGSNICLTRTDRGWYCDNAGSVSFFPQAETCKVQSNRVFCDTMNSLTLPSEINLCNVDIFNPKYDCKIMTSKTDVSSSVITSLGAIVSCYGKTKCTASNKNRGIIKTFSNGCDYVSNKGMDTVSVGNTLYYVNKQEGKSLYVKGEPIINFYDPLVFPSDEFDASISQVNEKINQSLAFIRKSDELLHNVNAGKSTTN

B1: Fab19 (fully matured, wild-type) (Fab, V domains shown)
VH: VQLLEVESGGGLRPGGSLRLSCAASGTTLSGYTMHWVRQAPGKGLEWVSSITGGSNFINYSDSVKGRFTISRDNAKNSLYLQMNSLTAEDTAVYYCATAPIAPPYFDHWGQGTLVTVSS
VL: ELTQSPSSLSASVGDRVTITCRATQSVSNFLNWYQQKPGEAPTLLIYDASTSQSGVPSRFSGSGSGMDFSLTISSLQPEDLAMYYCQASINTPLFGGGTRIDMR
B1 was tested. Which koff did it give?
The koff was 0.0057 s⁻¹.
